In patent US20240309056A1 (NAVIGO PROTEINS, published 2024):

Assays:
[1] = molecular target: T1, ubiquitin mutein 200053; assay: SPR (Biacore 3000), ligand multimer immobilised, ubiquitin mutein in solution
T1 construct: also called Affilin-200053
Protocol: (§1) Purified proteins were immobilized via C-terminal Cysteine on a CM-5 sensor chip (GE Healthcare) using NHS/EDC after PDEA activation with a Biacore 3000 system (GE Healthcare). The chip was equilibrated with SPR running buffer (PBS 0.05% Tween pH 7.3). Soluble ubiquitin muteins (Affilin® proteins) applied to the chip in serial dilutions (different concentrations) with a flow rate of 30 μl/min. The association was performed for 120 seconds and the dissociation for 120 seconds. After each run, the chip surface was regenerated with 30 μl regeneration buffer (10 mM glycine pH 2.0) and equilibrated with running buffer. Affilin® proteins accumulated on the surface increasing the refractive index. This change in the refractive index was measured in real time and plotted as response or resonance units versus time.
(§2) Binding studies were carried out using the BIAcore 3000 (GE Healthcare); data evaluation was operated via the BIAevaluation 3.0 software, provided by the manufacturer, by the use of the Langmuir 1:1 model (RI=0). Evaluated dissociation constants (KD) were standardized against the immobilized protein and indicated. Shown is the change in refractive index measured in real time and plotted as response or resonance unit [RU] versus time [sec] (see Table 2).

[2] = molecular target: T2, ubiquitin mutein 77404; assay: as above
T2 construct: also called Affilin-77404
Protocol: as §1, §2

[3] = molecular target: T3, ubiquitin mutein 211883; assay: as above
T3 construct: also called Affilin-211883
Protocol: as §1, §2

[4] = molecular target: T1, ubiquitin mutein 200053; assay: SPR (Biacore 3000), ligand immobilised via C-terminal Cys on CM-5, ubiquitin mutein in solution, Langmuir 1:1
Protocol: as §1, §2

[5] = molecular target: T2, ubiquitin mutein 77404; assay: as above
Protocol: as §1, §2

[6] = molecular target: T3, ubiquitin mutein 211883; assay: as above
Protocol: as §1, §2

[7] = molecular target: T4, ubiquitin mutein 139819; assay: as above
T4 construct: Monomer with an insertion of 6 amino acids between positions 9 and 10 of ubiquitin; also called Affilin-139819
Protocol: as §1, §2

[8] = molecular target: T2, ubiquitin mutein 77404; assay: SPR (Biacore 3000), ligand immobilised, ubiquitin mutein in solution; Table 1 run; ligand on the chip, Affilin-77404 in solution
Protocol: as §1, §2

[9] = molecular target: T2, ubiquitin mutein 77404; assay: SPR; SEQ ID NO: 2, unmutated
Protocol: as §1, §2

[10] = molecular target: T2, ubiquitin mutein 77404; assay: SPR; point mutant Y8Q
Protocol: as §1, §2

[11] = molecular target: T2, ubiquitin mutein 77404; assay: SPR; point mutant M2K
Protocol: as §1, §2

[12] = molecular target: T2, ubiquitin mutein 77404; assay: SPR; point mutant M23E
Protocol: as §1, §2

[13] = molecular target: T2, ubiquitin mutein 77404; assay: SPR; point mutant D3F
Protocol: as §1, §2

[14] = molecular target: T2, ubiquitin mutein 77404; assay: SPR; point mutant K25R
Protocol: as §1, §2

[15] = molecular target: T2, ubiquitin mutein 77404; assay: SPR; point mutant A16H
Protocol: as §1, §2

[16] = molecular target: T2, ubiquitin mutein 77404; assay: SPR; point mutant F5E
Protocol: as §1, §2

B1: SEQ21 dimer (215996) (designed binder)
chain: NAARSDEAQYSAWAEIEALPNLTEMQKDQFIWSLMFDPSVSKEVLGEAQKLNDSQAPKQAPKVDAKFDQAPKVDAKFDNAARSDEAQYSAWAEIEALPNLTEMQKDQFIWSLMFDPSVSKEVLGEAQKLNDSQAPKC
Kd [1]: 5.5 nM
Kd [2]: 0.16 nM
Kd [3]: 78.1 nM

B2: SEQ1 dimer (215999) (designed binder)
chain: NAAMDDFAQYSAWAEIEALPNLTEMQKDQFIWSLMFDPSVSKEVLGEAQKLNDSQAPKQAPKVDAKFDQAPKVDAKFDNAAMDDFAQYSAWAEIEALPNLTEMQKDQFIWSLMFDPSVSKEVLGEAQKLNDSQAPKC
Kd [2]: 0.1 nM
Kd [3]: 55.6 nM

B3: SEQ21 trimer (215997) (designed binder)
chain: NAARSDEAQYSAWAEIEALPNLTEMQKDQFIWSLMFDPSVSKEVLGEAQKLNDSQAPKQAPKVDAKFDQAPKVDAKFDNAARSDEAQYSAWAEIEALPNLTEMQKDQFIWSLMFDPSVSKEVLGEAQKLNDSQAPKQAPKVDAKFDQAPKVDAKFDNAARSDEAQYSAWAEIEALPNLTEMQKDQFIWSLMFDPSVSKEVLGEAQKLNDSQAPKC
Kd [1]: 8.5 nM
Kd [2]: 0.4 nM
Kd [3]: 73.4 nM

B4: SEQ1 trimer (216000) (designed binder)
chain: NAAMDDFAQYSAWAEIEALPNLTEMQKDQFIWSLMFDPSVSKEVLGEAQKLNDSQAPKQAPKVDAKFDQAPKVDAKFDNAAMDDFAQYSAWAEIEALPNLTEMQKDQFIWSLMFDPSVSKEVLGEAQKLNDSQAPKQAPKVDAKFDQAPKVDAKFDNAAMDDFAQYSAWAEIEALPNLTEMQKDQFIWSLMFDPSVSKEVLGEAQKLNDSQAPKC
Kd [1]: 6.5 nM
Kd [2]: 0.3 nM
Kd [3]: 56.2 nM

B5: affinity ligand 187029 (designed binder)
chain: NAAMDDFAQYSAWAEIEALPNLTEMQKDQFIWSLMFDPSVSKEVLGEAQKLNDSQAPK
notes: Artificial mosaic protein of Protein A-like structure
Kd [4]: 5.9 nM
Kd [5]: 1.3 nM
Kd [6]: 52.9 nM
Kd [7]: 75.5 nM
Kd [8]: < 0.5 nM

B6: affinity ligand 187028 (designed binder)
chain: NAARSDEAQYSAWAEIEALPNLTEMQKDQFIWSLMFDPSVSKEVLGEAQKLNDSQAPK
Kd [4]: 2.5 nM
Kd [5]: 0.6 nM
Kd [6]: 66.2 nM
Kd [7]: 47.3 nM

B7: SEQ 21 tetramer (215998) (designed binder)
chain: NAARSDEAQYSAWAEIEALPNLTEMQKDQFIWSLMFDPSVSKEVLGEAQKLNDSQAPKQAPKVDAKFDQAPKVDAKFDNAARSDEAQYSAWAEIEALPNLTEMQKDQFIWSLMFDPSVSKEVLGEAQKLNDSQAPKQAPKVDAKFDQAPKVDAKFDNAARSDEAQYSAWAEIEALPNLTEMQKDQFIWSLMFDPSVSKEVLGEAQKLNDSQAPKQAPKVDAKFDQAPKVDAKFDNAARSDEAQYSAWAEIEALPNLTEMQKDQFIWSLMFDPSVSKEVLGEAQKLNDSQAPKC
Kd [1]: 8.3 nM
Kd [2]: 0.05 nM
Kd [3]: 95.7 nM

B8: SEQ1 tetramer (216001) (designed binder)
chain: NAAMDDFAQYSAWAEIEALPNLTEMQKDQFIWSLMFDPSVSKEVLGEAQKLNDSQAPKQAPKVDAKFDQAPKVDAKFDNAAMDDFAQYSAWAEIEALPNLTEMQKDQFIWSLMFDPSVSKEVLGEAQKLNDSQAPKQAPKVDAKFDQAPKVDAKFDNAAMDDFAQYSAWAEIEALPNLTEMQKDQFIWSLMFDPSVSKEVLGEAQKLNDSQAPKQAPKVDAKFDQAPKVDAKFDNAAMDDFAQYSAWAEIEALPNLTEMQKDQFIWSLMFDPSVSKEVLGEAQKLNDSQAPKC
Kd [1]: 6.5 nM
Kd [2]: 0.6 nM
Kd [3]: 93.1 nM

B9: SEQ ID NO: 2 (designed binder)
chain: AMDDFAQYSAWAEIEALPNLTEMQKDQFIWSLMFDPSVSKEVLGEAQKLNDSQAPK
notes: also called 187029 del2N
Kd [9]: < 0.5 nM

B10: SEQ ID NO: 2_Y8Q (designed binder)
chain: AMDDFAQQSAWAEIEALPNLTEMQKDQFIWSLMFDPSVSKEVLGEAQKLNDSQAPK
Kd [10]: < 0.5 nM

B11: SEQ ID NO: 2_M2K (designed binder)
chain: AKDDFAQYSAWAEIEALPNLTEMQKDQFIWSLMFDPSVSKEVLGEAQKLNDSQAPK
Kd [11]: < 0.5 nM

B12: SEQ ID NO: 2_M23E (designed binder)
chain: AMDDFAQYSAWAEIEALPNLTEEQKDQFIWSLMFDPSVSKEVLGEAQKLNDSQAPK
Kd [12]: < 0.5 nM

B13: SEQ ID NO: 2_D3F (designed binder)
chain: AMFDFAQYSAWAEIEALPNLTEMQKDQFIWSLMFDPSVSKEVLGEAQKLNDSQAPK
Kd [13]: < 0.5 nM

B14: SEQ ID NO: 2_K25R (designed binder)
chain: AMDDFAQYSAWAEIEALPNLTEMQRDQFIWSLMFDPSVSKEVLGEAQKLNDSQAPK
Kd [14]: < 0.5 nM

B15: SEQ ID NO: 2_A16H (designed binder)
chain: AMDDFAQYSAWAEIEHLPNLTEMQKDQFIWSLMFDPSVSKEVLGEAQKLNDSQAPK
Kd [15]: < 0.5 nM

B16: SEQ ID NO: 2_F5E (designed binder)
chain: AMDDEAQYSAWAEIEALPNLTEMQKDQFIWSLMFDPSVSKEVLGEAQKLNDSQAPK
Kd [16]: < 0.5 nM
